Data published in paper PMC8689070.

What was measured:
[1] = test system: CovR (non-phosphorylated) (Streptococcus pyogenes (M1T1 5448?; locus numbering MGAS5005)); assay: EMSA
[2] = test system: CovR-P (SP-TyK-phosphorylated) (Streptococcus pyogenes (M1T1 5448?; locus numbering MGAS5005)); assay: EMSA

## PcovR
[1]
  binding signal (fold of CovR-P binding): 0.25
[2]
  binding signal (fold vs non-phosphorylated CovR): 4
